Results on seven molecules are retold here after patent publication US20240132578A1 (published 2024).

Assay [1] has as its target HIV-1 93UG077 Env (clade A pseudovirus) (HIV-1). The assay is described as follows: cell-based or functional assay.
Assay [2] has as its target HIV-1 92BR020 Env (clade B pseudovirus) (HIV-1). The assay is described as follows: cell-based or functional assay.
The target of assay [3] is HIV-1 APV-13 Env (clade B pseudovirus) (HIV-1). The assay is described as follows: cell-based or functional assay.
In assay [4] the target is HIV-1 JRCSF Env (clade B pseudovirus) (HIV-1, UniProt P20871 32-848). The assay is described as follows: cell-based or functional assay.
Assay [5] has as its target HIV-1 APV-17 Env (clade B pseudovirus) (HIV-1). The assay can be described thus: cell-based or functional assay.
The target of assay [6] is HIV-1 APV-6 Env (clade B pseudovirus) (HIV-1). The assay is described as follows: cell-based or functional assay.
The target in assay [7] is HIV-1 IAVI-C18 Env (clade C pseudovirus) (HIV-1). The assay can be described thus: cell-based or functional assay.
Assay [8] concerns the target HIV-1 IAVI-C3 Env (clade C pseudovirus) (HIV-1). The assay can be described thus: cell-based or functional assay.
In assay [9] the target is HIV-1 92UG005 Env (clade D pseudovirus) (HIV-1). The assay can be described thus: cell-based or functional assay.
Assay [10] has as its target HIV-1 CMU02 Env (CRF01_AE pseudovirus) (HIV-1). The assay can be described thus: cell-based or functional assay.
The target of assay [11] is aMLV envelope (negative control pseudovirus). The assay can be described thus: cell-based or functional assay.
Assay [12] concerns the target HIV-1 94UG103 Env (clade A pseudovirus) (HIV-1). The assay is described as follows: cell-based or functional assay.
For assay [13], the target named is HIV-1 92RW020 Env (clade A pseudovirus) (HIV-1). The assay can be described thus: cell-based or functional assay.
A further assay addresses T1, recombinant gp41 HxB2 (HIV-1, UniProt P04578 541-682).
T1 construct: domain: gp41
The assay is described as follows: screening ELISA on recombinant gp41 (column mAb Specificity). (In general: ELISA stands for enzyme-linked immunosorbent assay.)

For assay [14], the target named is T2, recombinant gp41HxB2 (HIV-1 clone HxB2, UniProt P04578 541-682).
T2 construct: domain: gp41
The assay is described as follows: ELISA, initial screen of B cell culture supernatants.

The target of assay [15] is HIV-1 93IN905 Env (clade C pseudovirus) (HIV-1). The assay can be described thus: cell-based or functional assay.
Assay [16] concerns the target HIV-1 IAVI-C22 Env (clade C pseudovirus) (HIV-1). The assay can be described thus: cell-based or functional assay.
The target of assay [17] is HIV-1 92UG024 Env (clade D pseudovirus) (HIV-1). The assay is described as follows: cell-based or functional assay.
Assay [18] concerns the target HIV-1 92TH021 Env (CRF01_AE pseudovirus) (HIV-1). The assay is described as follows: cell-based or functional assay.
Assay [19] addresses T3, recombinant, monomeric gp120 JR-CSF (HIV-1, UniProt P20871 32-503).
T3 construct: domain: gp120; also called JR-CSF gp120
The assay can be described thus: screening ELISA on recombinant gp120 (column mAb Specificity).

Assay [20] has as its target T4, HIV-1 YU2 gp160 expressed on the cell surface (HIV-1 strain YU2, UniProt P35961 32-843).
T4 construct: whole, on cells
The assay is described as follows: flow cytometry on transfected cells (FIG. 8). In general terms: In flow cytometry, cells or beads pass a laser one at a time.

The target of assay [21] is T5, V1/V2 deleted HIV-1JR-CSF Env expressed on transfected cells (HIV-1 strain JR-CSF, UniProt P20871 32-848).
T5 construct: whole, on cells; also called variable loop deleted HIV-1JR-CSF variant (V1/V2)
The assay is described as follows: flow cytometry on transfected 293T cells (FIG. 13E).

Assay [22] deals with T6, V3 deleted HIV-1JR-CSF Env expressed on transfected cells (HIV-1 strain JR-CSF, UniProt P20871 32-848).
T6 construct: whole, on cells; also called variable loop deleted HIV-1JR-CSF variant (V3)
The description is as above.

The target in assay [23] is T7, recombinant, monomeric gp120JR-CSF (HIV-1 isolate JR-CSF, UniProt P20871 32-503).
T7 construct: domain: gp120; also called JR-CSF gp120; JR-CSFgp120
The assay is described as follows: ELISA, initial screen of B cell culture supernatants.

The target of assay [24] is T2, recombinant gp41HxB2. The assay is described as follows: ELISA on recombinant gp41.
Assay [25] deals with HIV-1 93IN905 envelope protein (Env) on pseudotyped virus (HIV-1 strain 93IN905). The assay can be described thus: cell-based or functional assay.
The target of assay [26] is HIV-1 IAVI_C22 envelope protein (Env) on pseudotyped virus (HIV-1 strain IAVI C22). The assay can be described thus: cell-based or functional assay.
For assay [27], the target named is HIV-1 92TH021 envelope protein (Env) on pseudotyped virus (HIV-1 strain 92TH021). The assay can be described thus: cell-based or functional assay.
Assay [28] addresses HIV-1 JR-CSF envelope protein (Env) on pseudotyped virus (HIV-1 isolate JR-CSF, UniProt P20871 32-848). The assay is described as follows: cell-based or functional assay.
Assay [29] concerns the target HIV-1 NL43 envelope protein (Env) on pseudotyped virus (HIV-1 strain NL43). The assay can be described thus: cell-based or functional assay.
The target of assay [30] is aMLV envelope on pseudotyped virus (negative control) (aMLV). The assay is described as follows: cell-based or functional assay.
Assay [31] addresses HIV-1 SF162 envelope protein (Env) on pseudotyped virus (HIV-1 isolate SF162, UniProt P19550 32-847). The assay can be described thus: cell-based or functional assay.
Assay [32] deals with HIV-1 94UG103 envelope protein (Env) on pseudotyped virus (HIV-1 strain 94UG103). The assay can be described thus: cell-based or functional assay.
In assay [33] the target is HIV-1 92BR020 envelope protein (Env) on pseudotyped virus (HIV-1 strain 92BR020). The assay can be described thus: cell-based or functional assay.

B1: 1496_C09 (PG9) (TCN-109) (antibody, V domains shown)
VH: QRLVESGGGVVQPGSSLRLSCAASGFDFSRQGMHWVRQAPGQGLEWVAFIKYDGSEKYHADSVWGRLSISRDNSKDTLYLQMNSLRVEDTATYFCVREAGGPDYRNGYNYYDFYDGYYNYHYMDVWGKGTTVTVSS
VL: QSALTQPASVSGSPGQSITISCNGTSNDVGGYESVSWYQQHPGKAPKVVIYDVSKRPSGVSNRFSGSKSGNTASLTISGLQAEDEGDYYCKSLTSTRRRVFGTGTKLTVLG
As to B1, the “IC50 (µg/mL), pseudovirus neutralization” value in [1] is over 50 µg/mL; in assay [2], over 50 µg/mL; in assay [3], over 50 µg/mL; in [4], under 0.0025 µg/mL; in [5], 26.4 µg/mL; in [6], 0.09 µg/mL. Moreover, the “IC50 (µg/mL), pseudovirus neutralization” value in assay [7] is 0.05 µg/mL; in assay [8], 12.9 µg/mL; in assay [9], over 50 µg/mL; in [10], over 50 µg/mL; in assay [11], over 50 µg/mL; in [12], 0.17 µg/mL. Besides, the “IC50 (µg/mL), pseudovirus neutralization” value in assay [13] is 0.06 µg/mL. In addition, the binding result in the assay with recombinant gp41 HxB2 is “no binding”.

B2: 1496_C09 (PG9) (TCN-109) (antibody, V domains shown)
VH: QRLVESGGGVVQPGSSLRLSCAASGFDFSRQGMHWVRQAPGQGLEWVAFIKYDGSEKYHADSVWGRLSISRDNSKDTLYLQMNSLRVEDTATYFCVREAGGPDYRNGYNYYDFYDGYYNYHYMDVWGKGTTVTVSS
VL: QSALTQPASVSGSPGQSITISCNGTSNDVGGYESVSWYQQHPGKAPKVVIYDVSKRPSGVSNRFSGSKSGNTASLTISGLQAEDEGDYYCKSLTSTRRRVFGTGTKLTVLG
As for B2, in the assay with recombinant gp41HxB2 [14], the binding result is listed as “no binding”.

B3: 1443_C16 (PG16) (TCN-116) (antibody, V domains shown)
VH: QEQLVESGGGVVQPGGSLRLSCLASGFTFHKYGMHWVRQAPGKGLEWVALISDDGMRKYHSDSMWGRVTISRDNSKNTLYLQFSSLKVEDTAMFFCAREAGGPIWHDDVKYYDFNDGYYNYHYMDVWGKGTTVTVSS
VL: QSALTQPASVSGSPGQTITISCNGTSSDVGGFDSVSWYQQSPGKAPKVMVFDVSHRPSGISNRFSGSKSGNTASLTISGLHIEDEGDYFCSSLTDRSHRIFGGGTKVTVLG
For B3, the “IC50 (µg/mL), pseudovirus neutralization” value in assay [1] is over 50 µg/mL; in [2], over 50 µg/mL; in assay [3], over 50 µg/mL; in [4], under 0.0025 µg/mL; in assay [5], over 50 µg/mL; in assay [6], 0.08 µg/mL. In addition, the “IC50 (µg/mL), pseudovirus neutralization” value in [15] is 0.1 µg/mL; in [7], 0.007 µg/mL; in [16], 0.069 µg/mL; in assay [8] it was 14.8 µg/mL; in assay [17], over 50 µg/mL; in [9], over 50 µg/mL. Besides, the “IC50 (µg/mL), pseudovirus neutralization” value in assay [18] is 0.13 µg/mL; in assay [10] it was over 50 µg/mL; in assay [11] it was over 50 µg/mL; in assay [12], 0.008 µg/mL; in assay [13], 0.004 µg/mL. For the same molecule, the binding result (with recombinant gp41 HxB2; in [19]) was “no binding” each time.

B4: 1443_C16 (PG16) (TCN-116) (antibody, V domains shown)
VH: QEQLVESGGGVVQPGGSLRLSCLASGFTFHKYGMHWVRQAPGKGLEWVALISDDGMRKYHSDSMWGRVTISRDNSKNTLYLQFSSLKVEDTAMFFCAREAGGPIWHDDVKYYDFNDGYYNYHYMDVWGKGTTVTVSS
VL: QSALTQPASVSGSPGQTITISCNGTSSDVGGFDSVSWYQQSPGKAPKVMVFDVSHRPSGISNRFSGSKSGNTASLTISGLHIEDEGDYFCSSLTDRSHRIFGGGTKVTVLG
For the molecule B4, the binding result in assay [20] was “binds”; in [21], “no binding”; in [22], “no binding”; in assay [23], “no binding”; with recombinant gp41HxB2 [14] it was “no binding”.

B5: 1495_C14 (PGC14) (antibody, human IgG1, lambda, V domains shown)
VH: DGHLVQSGVEVKKTGATVKISCKVSGYSFIDYYLHWVQRAPGKGLEWVGLIDPENGEARYAEKFQGRVTIIADTSIDTGYMEMRSLKSEDTAVYFCAAGAVGADSGSWFDPWGQGTLVTVSS
VL: SYELTQPPSVSVSPGQTASITCSGSKLGDKYVSWYQLRPGQSPILVMYENDRRPSGIPERFSGSNSGDTATLTISGTQALDEADFYCQAWETTTTTFVFFGGGTQLTVLG
Turning to B5, in the assay with recombinant gp41HxB2 [24], the binding result is on record as “no binding”.

B6: 1460_G14 (PGG14) (antibody, human IgG1, kappa, V domains shown)
VH: QVLLVQSGTEVKKPGSSVKVSCQASGGAFSSYAFSWVRQAPGQGLEWMGMITPVFGETKYAPRFQGRLTLTAEESLSTTYMELRSLTSDDTAFYYCTRDRRVVPMATDNWLDPWGQGTLVTVSS
VL: DIQLTQSPSSLSASVGDRVTVTCRASQTIHTYLNWYQQIPGKAPKLLIYGASTLQSGVPSRFSGSGSGTDFTLTINSLQPEDFATYYCQQSYSTPRTFGQGTRLDIKR
On to B6, for which the “IC50, Neutralizing Antibody Assay, Virus/Ab Incubation 1 hour” value in [25] was over 50 µg/mL; in assay [26], over 50 µg/mL; in assay [27], over 50 µg/mL; in assay [28], over 50 µg/mL; in assay [29] it was 0.17 µg/mL; in [30], over 50 µg/mL. For the same molecule, the “IC50, Neutralizing Antibody Assay, Virus/Ab Incubation 1 hour” value in [31] was 0.179 µg/mL; in [32], over 50 µg/mL; in assay [33], over 50 µg/mL. The “IC50, Neutralizing Antibody Assay, Virus/Ab Incubation 18 hour” value in [25] was 3.17 µg/mL; in assay [26], over 50 µg/mL; in assay [27], over 50 µg/mL; in assay [28], over 50 µg/mL; in assay [29], 0.05 µg/mL; in assay [30], over 50 µg/mL. For the same molecule, the “IC50, Neutralizing Antibody Assay, Virus/Ab Incubation 18 hour” value in assay [31] is 0.0573 µg/mL; in assay [32] it was over 50 µg/mL; in [33], over 50 µg/mL.

B7: 1460_G14 (PGG14) (antibody, human IgG1, kappa, V domains shown)
VH: QVLLVQSGTEVKKPGSSVKVSCQASGGAFSSYAFSWVRQAPGQGLEWMGMITPVFGETKYAPRFQGRLTLTAEESLSTTYMELRSLTSDDTAFYYCTRDRRVVPMATDNWLDPWGQGTLVTVSS
VL: DIQLTQSPSSLSASVGDRVTVTCRASQTIHTYLNWYQQIPGKAPKLLIYGASTLQSGVPSRFSGSGSGTDFTLTINSLQPEDFATYYCQQSYSTPRTFGQGTRLDIKR
Turning to B7, in the assay with recombinant gp41HxB2 [24], the binding result is given as “no binding”.
